Test results published in article PMC4700190.

Columns and labels:
[1] = biological target: CynD A58C (Bacillus pumilus); experiment: SEC; Superdex 200 10/300 GL, 0.1 M MOPS pH 7.7, 0.5 ml/min; His-tag purified protein; column calibrated with a marker kit, and with wild-type B. pumilus CynD (18-mer) and P. stutzeri CynD (14-mer)
[2] = biological target: CynD C225A (Bacillus pumilus); experiment: as above
[3] = biological target: CynD D232C (Bacillus pumilus); experiment: as above
[4] = biological target: CynD E64C (Bacillus pumilus); experiment: as above
[5] = biological target: CynD E72C (Bacillus pumilus); experiment: as above
[6] = biological target: CynD E222C (Bacillus pumilus); experiment: as above
[7] = biological target: CynD E229C (Bacillus pumilus); experiment: as above
[8] = biological target: CynD E235C (Bacillus pumilus); experiment: as above
[9] = biological target: CynD F57C (Bacillus pumilus); experiment: as above
[10] = biological target: CynD F59C (Bacillus pumilus); experiment: as above
[11] = biological target: CynD F69C (Bacillus pumilus); experiment: as above
[12] = biological target: CynD F234C (Bacillus pumilus); experiment: as above
[13] = biological target: CynD G61C (Bacillus pumilus); experiment: as above
[14] = biological target: CynD H62C (Bacillus pumilus); experiment: as above
[15] = biological target: CynD H71C (Bacillus pumilus); experiment: as above
[16] = biological target: CynD I60C (Bacillus pumilus); experiment: as above
[17] = biological target: CynD I224C (Bacillus pumilus); experiment: as above
[18] = biological target: CynD K68C (Bacillus pumilus); experiment: as above
[19] = biological target: CynD L226C (Bacillus pumilus); experiment: as above
[20] = biological target: CynD M223C (Bacillus pumilus); experiment: as above
[21] = biological target: CynD P55C (Bacillus pumilus); experiment: as above
[22] = biological target: CynD P63C (Bacillus pumilus); experiment: as above
[23] = biological target: CynD Q230C (Bacillus pumilus); experiment: as above
[24] = biological target: CynD R67C (Bacillus pumilus)
[25] = biological target: CynD R231C (Bacillus pumilus); experiment: SEC; Superdex 200 10/300 GL, 0.1 M MOPS pH 7.7, 0.5 ml/min; His-tag purified protein; column calibrated with a marker kit, and with wild-type B. pumilus CynD (18-mer) and P. stutzeri CynD (14-mer)
[26] = biological target: CynD T66C (Bacillus pumilus); experiment: as above
[27] = biological target: CynD T227C (Bacillus pumilus); experiment: as above
[28] = biological target: CynD W56C (Bacillus pumilus); experiment: as above
[29] = biological target: CynD Y65C (Bacillus pumilus); experiment: as above
[30] = biological target: CynD Y70C (Bacillus pumilus); experiment: as above
[31] = biological target: CynD Y233C (Bacillus pumilus); experiment: as above
[32] = biological target: CynD from Pseudomonas stutzeri (Pseudomonas stutzeri); experiment: as above
[33] = biological target: cyanide dihydratase from Bacillus pumilus (CynD), wild type (Bacillus pumilus); experiment: as above

CynD A58C (enzyme) gave a stoichiometry N [1] of 18 subunits.

Work on CynD C225A (enzyme) yielded a stoichiometry N [2] of 18 subunits.

Substance CynD D232C (enzyme) has a stoichiometry N [3] of 18 subunits.

CynD E64C (enzyme) showed a stoichiometry N [4] of 16 subunits.

CynD E72C (enzyme) gave a stoichiometry N [5] of 18 subunits.

For CynD E222C (enzyme), the stoichiometry N [6] was 18 subunits.

CynD E229C (enzyme) gave a stoichiometry N [7] of 18 subunits.

With CynD E235C (enzyme) the stoichiometry N [8] was 18 subunits.

CynD F57C (enzyme) showed a stoichiometry N [9] of 14 subunits.

CynD F59C (enzyme) was tested, and the stoichiometry N [10] was 18 subunits.

For CynD F69C (enzyme), the stoichiometry N [11] was 16 subunits.

Substance CynD F234C (enzyme) has a stoichiometry N [12] of 16 subunits.

CynD G61C (enzyme) gave a stoichiometry N [13] of 14 subunits.

With CynD H62C (enzyme) the stoichiometry N [14] was 18 subunits.

With CynD H71C (enzyme) the stoichiometry N [15] was 16 subunits.

With CynD I60C (enzyme) the stoichiometry N [16] was 18 subunits.

For CynD I224C (enzyme), the stoichiometry N [17] was 18 subunits.

For CynD K68C (enzyme), the stoichiometry N [18] was 18 subunits.

CynD L226C (enzyme) gave a stoichiometry N [19] of 18 subunits.

Work on CynD M223C (enzyme) yielded a stoichiometry N [20] of 18 subunits.

CynD P55C (enzyme) gave a stoichiometry N [21] of 18 subunits.

Substance CynD P63C (enzyme) has a stoichiometry N [22] of 18 subunits.

In the case of CynD Q230C (enzyme), the stoichiometry N [23] is reported as 18 subunits.

CynD R67C (enzyme) gave an activity of the purified protein relative to wild type, picric acid cyanide assay [24] of under 10%.

CynD R231C (enzyme) was tested, and the stoichiometry N [25] was 18 subunits.

CynD T66C (enzyme) gave a stoichiometry N [26] of 16 subunits.

Work on CynD T227C (enzyme) yielded a stoichiometry N [27] of 18 subunits.

Substance CynD W56C (enzyme) has a stoichiometry N [28] of 16 subunits.

With CynD Y65C (enzyme) the stoichiometry N [29] was 18 subunits.

In the case of CynD Y70C (enzyme), the stoichiometry N [30] is reported as 16 subunits.

Work on CynD Y233C (enzyme) yielded a stoichiometry N [31] of 16 subunits.

In the case of CynD from Pseudomonas stutzeri (enzyme), the stoichiometry N [32] is reported as 14 subunits.

Work on “cyanide dihydratase from Bacillus pumilus (CynD), wild type (enzyme)” yielded a stoichiometry N [33] of 18 subunits.
